Biological target: calmodulin-Sepharose, P0DP23
Test: pull-down
Details: remark: other sources report otherwise

Row | percent reduction of binding with EGTA against Ca2+ | fold more bound with Ca2+ than with EGTA | Binder
1 | 70.9% |  | purified recombinant human LATS1 (active kinase), O95835 1-1130 (enzyme) MKRSEKPEGYRQMRPKTFPASNYTVSSRQMLQEIRESLRNLSKPSDAAKAEHNMSKMSTEDPRQVRNPPKFGTHHKALQEIRNSLLPFANETNSSRSTSEVNPQMLQDLQAAGFDEDMVIQALQKTNNRSIEAAIEFISKMSYQDPRREQMAAAAARPINASMKPGNVQQSVNRKQSWKGSKESLVPQRHGPPLGESVAYHSESPNSQTDVGRPLSGSGISAFVQAHPSNGQRVNPPPPPQVRSVTPPPPPRGQTPPPRGTTPPPPSWEPNSQTKRYSGNMEYVISRISPVPPGAWQEGYPPPPLNTSPMNPPNQGQRGISSVPVGRQPIIMQSSSKFNFPSGRPGMQNGTGQTDFMIHQNVVPAGTVNRQPPPPYPLTAANGQSPSALQTGGSAAPSSYTNGSIPQSMMVPNRNSHNMELYNISVPGLQTNWPQSSSAPAQSSPSSGHEIPTWQPNIPVRSNSFNNPLGNRASHSANSQPSATTVTAITPAPIQQPVKSMRVLKPELQTALAPTHPSWIPQPIQTVQPSPFPEGTASNVTVMPPVAEAPNYQGPPPPYPKHLLHQNPSVPPYESISKPSKEDQPSLPKEDESEKSYENVDSGDKEKKQITTSPITVRKNKKDEERRESRIQSYSPQAFKFFMEQHVENVLKSHQQRLHRKKQLENEMMRVGLSQDAQDQMRKMLCQKESNYIRLKRAKMDKSMFVKIKTLGIGAFGEVCLARKVDTKALYATKTLRKKDVLLRNQVAHVKAERDILAEADNEWVVRLYYSFQDKDNLYFVMDYIPGGDMMSLLIRMGIFPESLARFYIAELTCAVESVHKMGFIHRDIKPDNILIDRDGHIKLTDFGLCTGFRWTHDSKYYQSGDHPRQDSMDFSNEWGDPSSCRCGDRLKPLERRAARQHQRCLAHSLVGTPNYIAPEVLLRTGYTQLCDWWSVGVILFEMLVGQPPFLAQTPLETQMKVINWQTSLHIPPQAKLSPEASDLIIKLCRGPEDRLGKNGADEIKAHPFFKTIDFSSDLRQQSASYIPKITHPTDTSNFDPVDPDKLWSDDNEEENVNDTLNGWYKNGKHPEHAFYEFTFRRFFDDNGYPYNYPKPIEYEYINSQGSEQQSDEDDQNTGSEIKNRDLVYV
2 |  | 11 fold | large tumor suppressor 1 kinase (endogenous, HEK293 cells), O95835 1-1130 (enzyme) MKRSEKPEGYRQMRPKTFPASNYTVSSRQMLQEIRESLRNLSKPSDAAKAEHNMSKMSTEDPRQVRNPPKFGTHHKALQEIRNSLLPFANETNSSRSTSEVNPQMLQDLQAAGFDEDMVIQALQKTNNRSIEAAIEFISKMSYQDPRREQMAAAAARPINASMKPGNVQQSVNRKQSWKGSKESLVPQRHGPPLGESVAYHSESPNSQTDVGRPLSGSGISAFVQAHPSNGQRVNPPPPPQVRSVTPPPPPRGQTPPPRGTTPPPPSWEPNSQTKRYSGNMEYVISRISPVPPGAWQEGYPPPPLNTSPMNPPNQGQRGISSVPVGRQPIIMQSSSKFNFPSGRPGMQNGTGQTDFMIHQNVVPAGTVNRQPPPPYPLTAANGQSPSALQTGGSAAPSSYTNGSIPQSMMVPNRNSHNMELYNISVPGLQTNWPQSSSAPAQSSPSSGHEIPTWQPNIPVRSNSFNNPLGNRASHSANSQPSATTVTAITPAPIQQPVKSMRVLKPELQTALAPTHPSWIPQPIQTVQPSPFPEGTASNVTVMPPVAEAPNYQGPPPPYPKHLLHQNPSVPPYESISKPSKEDQPSLPKEDESEKSYENVDSGDKEKKQITTSPITVRKNKKDEERRESRIQSYSPQAFKFFMEQHVENVLKSHQQRLHRKKQLENEMMRVGLSQDAQDQMRKMLCQKESNYIRLKRAKMDKSMFVKIKTLGIGAFGEVCLARKVDTKALYATKTLRKKDVLLRNQVAHVKAERDILAEADNEWVVRLYYSFQDKDNLYFVMDYIPGGDMMSLLIRMGIFPESLARFYIAELTCAVESVHKMGFIHRDIKPDNILIDRDGHIKLTDFGLCTGFRWTHDSKYYQSGDHPRQDSMDFSNEWGDPSSCRCGDRLKPLERRAARQHQRCLAHSLVGTPNYIAPEVLLRTGYTQLCDWWSVGVILFEMLVGQPPFLAQTPLETQMKVINWQTSLHIPPQAKLSPEASDLIIKLCRGPEDRLGKNGADEIKAHPFFKTIDFSSDLRQQSASYIPKITHPTDTSNFDPVDPDKLWSDDNEEENVNDTLNGWYKNGKHPEHAFYEFTFRRFFDDNGYPYNYPKPIEYEYINSQGSEQQSDEDDQNTGSEIKNRDLVYV

— publication PMC9019248
